Among the data in publication PMC6128732 are Kd values, retold here.

The assay addresses Biotinylated Xenopus laevis XRCC4-Avitag (Xenopus laevis). The assay is described as follows: BLI. (In general: Biolayer interferometry detects binding as a change in optical thickness at a sensor tip.)

For orientation: Kd means the constant that tells how readily two partners part at equilibrium. Low readings indicate tighter binding, high ones weaker binding. For “Xenopus laevis XLF^1-226 (C-terminally truncated XLF) (from UniProt A0A1L8ENT6 1-226) (domain or fragment)”, the dissociation constant (Kd) is 0.28 µM.
